Experimental data from the DeepSol protein solubility set.

test: soluble on expression in E. coli; label from the status in PepcDB or PDB records

Sequence	soluble on expression in E. coli
MGSDKIHHHHHHMEAQDHNNEQQVTEYQVMSYLRAHPQFFEHHTGLLAELYLPSPHGQGTVSLAERQQLAQRDRIRVLDAKLAQLMKYGEENDAIGEKVHRLSLGLLATERMEVLVSLLEHSLHEDFQVPYVSLRLWAKPRESGNGSLPIFASVDQELQRWAQGLATPYCGNRPGMPLQGWFGVEARPASFAVMALKAQQVFGVLALASDDDKRFYPDMGTLYLKRISELISAALLRHIIV	not soluble
MGSDKIHHHHHHMNFIKTISPIQKINFNGFEFYIKRDDLLGEINGNKARKLAFYIHQRYPKNQSFVSYGGSQSNALAALSIFAKQRSYKLVFACEKISTFLKNNPCGNYALALENGVDFVENIHSLSLKQFALSLCKKDDVFIEQGIANLEAQYGYMELAQEIQMQSQSLKLDFDIFLPSGTGTSAAFLAKYSKFKVFTCACVGDIKYLKKQILTLDPSYDFSNLEFLTSDKKYHFAKPYKEFYELYMDLKLKCNIEFDLLYDILGLSIALKQEWKKPLLYIHQGGILGNSTMLERYKFKKSV	not soluble
MSLSGDLVSLKVVVFDIGNVLLRWDPRLLYRKIFSEENQMEWFLSQVCSEAFNRKLDGGAPFAAAIEALVAQFPDFSKEIRAYDERWLETTSGPIPETFAILEELVAEGVPLYAITNFSYEKFEVARCAFELFDRFDGIVVSGAEGVVKPEAPIYRLLLDRYGLDASDCLFIDDSAANVDGARAVGMQGYHYRDPISLRWKLTECGLLCRKSDLNDKGQVLEKREGHHHHHH	soluble
GPGSMSALWAQVRQTVESEWDKTIVPAISAYIEVPNQSPQFDPEWATNGLQEKAFGILIDWMNAQNVQGLTYDYITADGRTPFLLVEIAGTEPTNNTVLMYGHMDKQPPLRPWAEGLDPHKAVVRDGKLYGRGGADDGYALFAAVTAISSLQRHGIPHGRVVITIEAGEESGSPDLDYYMERCKERIGKVDLMVCLDSGSMNYSQVWLTTSLRGVAIGELTVQTLTESMHSGVAGGVVPDTFRITRELLSRIEDCKTGEVTIPEAHCEIPPNAVKAAEAMKTVPFKEQFAMAAGVATVPGDNVELAIQNFWKPSLTVTGANLPDPQIAGNVIRTHTTVKLSMRLPPLVKAEAALQAMKRILEADPPYGAKVAFKGVGAGNGCAAPELKPWLQEVLHEGSTEAFGNTYACQGMGGAIPFIGMLIDMYPEAQFVVTGLLGPQSNAHGPNEFLHIPYAKGLTYSIARVVAAHLHNTPK	soluble
MSLGTLPPELQNTCVARGKLPLLLDLDNTLLHAQAASATGCDVRLQDWIDPYGEPELYRFELPCNRKTYYMKLRPHLRTFLKKLEPFYEMSVYTNATQEYADIVIAILDGNRQLFQDRIVARDSGFRGEASENKAVRRLYEGMDKRCIVAFDDRQNIWTDLPLTHVVKAQHYDFFDSHKTELNAYYPPLSNGIEGMTAPDVLGNRQNEDEGHHHHHH	not soluble
MADSKAKPAKAANKTPPKSPGDPARAAKRLSLESEGANEGATAAPELSALEEAFRRFAVHGDTRATGKEMHGKNWSKLCKDCHVIDGKNVTVTDVDIVFSKIKGKSCRTITFEQFQEALEELAKKRFKDKSSEEAVREVHRLIEGRAPVISGVTKAVSSPTVSRLTDTSKFTGSHKERFDQSGKGKGKAGRVDLVDESGYVPGYKHAGTYDQKVQGGK	soluble
MASGTASMQRPSIEKEPYYHGFLPREDVKTVLKNNGDFVIRISEPQAGSPRSNILSVMHCVPPMEEEIKHYVIKTKGDKIFIEKVSFLSIPEMVEWHLTKKESVQKDVFLIKAISRQAWELDHDNIEPLKKLGEGAFGEVMMGTMKFRKGGKSVQVAIKQAKLSNLTKEQIKEFMGEARVMRSLSHPHVVRFYGVPRRRVNVALCRSLNEFLAKCHRKLRCATPFFVCMSVNWLSVLNELRVFLE	not soluble
METCFANLDEQTKEKAKSILEQKKSGKLTHEQAKEELTKLGVKLPEKEKHEDIFAGLDEATKTKAKAILDNEKKQLEALNVDLPHHKFFMKKEDK	not soluble
DIQMSQSSSSFSVSLGDRVTITCKASEDIYSRLAWYQQKPGNAPRLLISGATSLETWVPSRFSGSDSGKDYTLSITSLQTEDVATYFCQQYWSPPPTFGGGTKLEIKRADAAPTVSIFPPSSEQLTSGGASVVCFLNNFYPKDINVKWKIDGSERQNGVLNSWTDQDSKDSTYSMSSTLTLTKDEYERHNSYTCEATHKTSTSPIVKSFNRNEC	soluble
